Assay results as given in patent US20250051460A1 (Boehringer Ingelheim, published 2025).
Values joined by “and” are separate entries in the source; they are usually repeats but may differ in a detail not shown here. Equal entries are not always repeated. Where two headings read alike, the source gives them in different places.

B1: TPP-14938 (bispecific antibody, human IgG1, kappa, L234A L235A)
heavy: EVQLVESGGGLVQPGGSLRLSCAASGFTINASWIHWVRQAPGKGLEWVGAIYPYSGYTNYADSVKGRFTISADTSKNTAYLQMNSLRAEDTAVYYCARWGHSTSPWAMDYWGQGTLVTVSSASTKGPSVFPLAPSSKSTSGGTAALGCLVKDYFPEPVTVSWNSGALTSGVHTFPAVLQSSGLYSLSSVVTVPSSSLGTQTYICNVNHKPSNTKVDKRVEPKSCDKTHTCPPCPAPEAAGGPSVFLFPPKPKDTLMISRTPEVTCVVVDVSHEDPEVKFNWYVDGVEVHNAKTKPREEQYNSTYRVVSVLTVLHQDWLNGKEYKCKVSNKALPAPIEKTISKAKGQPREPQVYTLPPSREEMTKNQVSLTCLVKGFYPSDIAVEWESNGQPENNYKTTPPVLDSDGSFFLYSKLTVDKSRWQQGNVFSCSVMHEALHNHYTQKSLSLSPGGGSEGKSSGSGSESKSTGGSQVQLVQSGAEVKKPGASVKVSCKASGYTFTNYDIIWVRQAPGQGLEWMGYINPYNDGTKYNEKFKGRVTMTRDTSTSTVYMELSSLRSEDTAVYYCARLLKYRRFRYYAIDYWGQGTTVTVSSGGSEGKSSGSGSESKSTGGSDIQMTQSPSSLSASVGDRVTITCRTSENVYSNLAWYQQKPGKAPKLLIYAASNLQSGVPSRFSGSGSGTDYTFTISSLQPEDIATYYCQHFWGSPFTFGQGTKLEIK
light: DIQMTQSPSSLSASVGDRVTITCRASQVIRRSLAWYQQKPGKAPKLLIYAASNLASGVPSRFSGSGSGTDFTLTISSLQPEDFATYYCQQSNTSPLTFGQGTKVEIKRTVAAPSVFIFPPSDEQLKSGTASVVCLLNNFYPREAKVQWKVDNALQSGNSQESVTEQDSKDSTYSLSSTLTLSKADYEKHKVYACEVTHQGLSSPVTKSFNRGEC
B2: TPP-14939 (bispecific antibody, human IgG1, kappa, L234A L235A)
heavy: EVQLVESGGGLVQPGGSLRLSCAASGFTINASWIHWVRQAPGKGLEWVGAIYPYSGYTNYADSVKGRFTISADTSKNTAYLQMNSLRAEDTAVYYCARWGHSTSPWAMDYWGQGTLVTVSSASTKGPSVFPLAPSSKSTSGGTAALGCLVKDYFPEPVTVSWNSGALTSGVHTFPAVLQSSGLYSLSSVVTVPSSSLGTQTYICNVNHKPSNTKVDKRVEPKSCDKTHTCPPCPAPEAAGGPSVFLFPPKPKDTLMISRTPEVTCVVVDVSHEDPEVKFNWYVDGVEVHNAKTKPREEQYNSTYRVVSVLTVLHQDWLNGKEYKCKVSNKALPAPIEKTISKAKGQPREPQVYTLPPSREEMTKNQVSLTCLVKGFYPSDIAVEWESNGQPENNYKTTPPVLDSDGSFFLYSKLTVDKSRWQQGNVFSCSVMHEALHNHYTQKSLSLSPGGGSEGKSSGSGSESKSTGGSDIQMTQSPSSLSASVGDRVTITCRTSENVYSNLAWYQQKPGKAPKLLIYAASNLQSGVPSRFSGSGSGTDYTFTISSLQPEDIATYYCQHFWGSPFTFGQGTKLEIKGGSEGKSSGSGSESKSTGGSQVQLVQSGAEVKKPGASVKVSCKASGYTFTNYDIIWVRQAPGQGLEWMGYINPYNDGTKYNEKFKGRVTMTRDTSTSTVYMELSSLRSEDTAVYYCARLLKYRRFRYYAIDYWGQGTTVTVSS
light: B1 light
B3: TPP-14937 (bispecific antibody, human IgG1, kappa, L234A L235A)
heavy: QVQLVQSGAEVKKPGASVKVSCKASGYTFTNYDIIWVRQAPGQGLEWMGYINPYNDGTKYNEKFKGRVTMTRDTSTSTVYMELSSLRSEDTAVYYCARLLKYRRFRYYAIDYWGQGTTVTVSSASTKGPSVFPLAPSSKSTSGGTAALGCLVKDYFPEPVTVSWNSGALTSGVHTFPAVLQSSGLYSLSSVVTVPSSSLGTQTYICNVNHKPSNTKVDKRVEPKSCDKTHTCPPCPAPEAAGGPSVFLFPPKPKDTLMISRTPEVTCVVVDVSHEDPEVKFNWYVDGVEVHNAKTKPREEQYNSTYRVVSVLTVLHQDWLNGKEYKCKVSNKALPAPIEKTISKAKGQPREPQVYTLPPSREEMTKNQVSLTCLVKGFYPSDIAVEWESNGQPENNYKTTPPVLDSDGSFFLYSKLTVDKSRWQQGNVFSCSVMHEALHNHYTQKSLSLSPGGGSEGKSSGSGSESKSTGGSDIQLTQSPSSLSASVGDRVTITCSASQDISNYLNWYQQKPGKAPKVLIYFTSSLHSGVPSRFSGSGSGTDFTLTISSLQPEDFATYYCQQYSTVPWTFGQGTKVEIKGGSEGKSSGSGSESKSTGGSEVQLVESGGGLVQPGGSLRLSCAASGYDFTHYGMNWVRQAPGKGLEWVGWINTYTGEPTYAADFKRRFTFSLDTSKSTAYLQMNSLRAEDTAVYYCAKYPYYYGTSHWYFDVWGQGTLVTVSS
light: DIQMTQSPSSLSASVGDRVTITCRTSENVYSNLAWYQQKPGKAPKLLIYAASNLQSGVPSRFSGSGSGTDYTFTISSLQPEDIATYYCQHFWGSPFTFGQGTKLEIKRTVAAPSVFIFPPSDEQLKSGTASVVCLLNNFYPREAKVQWKVDNALQSGNSQESVTEQDSKDSTYSLSSTLTLSKADYEKHKVYACEVTHQGLSSPVTKSFNRGEC
B4: TPP-11736 (bispecific antibody, human IgG1, kappa, L234A L235A)
heavy: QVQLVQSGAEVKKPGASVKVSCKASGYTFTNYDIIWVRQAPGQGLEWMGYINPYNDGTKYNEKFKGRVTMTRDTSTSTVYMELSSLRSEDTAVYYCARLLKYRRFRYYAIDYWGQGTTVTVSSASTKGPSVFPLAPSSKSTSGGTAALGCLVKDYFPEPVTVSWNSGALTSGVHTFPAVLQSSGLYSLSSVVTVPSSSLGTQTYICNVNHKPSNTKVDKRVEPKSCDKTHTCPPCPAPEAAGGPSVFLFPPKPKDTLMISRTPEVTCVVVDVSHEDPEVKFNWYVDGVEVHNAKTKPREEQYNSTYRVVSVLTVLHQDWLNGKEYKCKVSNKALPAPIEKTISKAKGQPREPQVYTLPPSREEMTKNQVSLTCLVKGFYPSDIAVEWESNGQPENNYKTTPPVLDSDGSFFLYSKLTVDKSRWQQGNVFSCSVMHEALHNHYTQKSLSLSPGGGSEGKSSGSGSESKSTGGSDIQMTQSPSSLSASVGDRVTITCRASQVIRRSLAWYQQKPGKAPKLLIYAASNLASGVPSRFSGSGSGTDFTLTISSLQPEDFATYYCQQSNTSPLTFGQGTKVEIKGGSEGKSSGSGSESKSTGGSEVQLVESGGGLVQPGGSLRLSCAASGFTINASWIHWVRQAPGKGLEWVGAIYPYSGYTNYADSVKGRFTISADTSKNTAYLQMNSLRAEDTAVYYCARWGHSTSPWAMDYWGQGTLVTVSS
light: B3 light
B5: TPP-14936 (bispecific antibody, human IgG1, kappa, L234A L235A)
heavy: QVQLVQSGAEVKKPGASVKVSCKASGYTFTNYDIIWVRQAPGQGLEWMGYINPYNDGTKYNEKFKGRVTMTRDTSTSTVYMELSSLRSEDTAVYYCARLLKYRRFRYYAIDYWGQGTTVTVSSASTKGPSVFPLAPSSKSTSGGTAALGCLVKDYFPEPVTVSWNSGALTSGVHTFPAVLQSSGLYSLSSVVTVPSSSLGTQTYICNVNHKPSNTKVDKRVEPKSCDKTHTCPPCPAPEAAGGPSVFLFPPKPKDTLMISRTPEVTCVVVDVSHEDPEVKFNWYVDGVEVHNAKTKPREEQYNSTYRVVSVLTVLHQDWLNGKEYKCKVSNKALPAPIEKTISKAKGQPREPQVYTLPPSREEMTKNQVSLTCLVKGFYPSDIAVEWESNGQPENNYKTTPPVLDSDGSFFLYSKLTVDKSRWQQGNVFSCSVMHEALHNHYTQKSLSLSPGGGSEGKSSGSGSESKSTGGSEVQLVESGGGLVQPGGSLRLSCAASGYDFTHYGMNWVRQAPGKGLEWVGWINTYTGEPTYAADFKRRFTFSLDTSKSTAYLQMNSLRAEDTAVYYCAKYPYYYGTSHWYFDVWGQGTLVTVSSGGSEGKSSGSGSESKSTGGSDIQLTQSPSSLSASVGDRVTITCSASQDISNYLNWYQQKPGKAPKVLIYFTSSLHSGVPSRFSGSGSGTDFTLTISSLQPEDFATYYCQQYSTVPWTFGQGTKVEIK
light: B3 light
B6: TPP-11738 (bispecific antibody, human IgG1, kappa, L234A L235A)
heavy: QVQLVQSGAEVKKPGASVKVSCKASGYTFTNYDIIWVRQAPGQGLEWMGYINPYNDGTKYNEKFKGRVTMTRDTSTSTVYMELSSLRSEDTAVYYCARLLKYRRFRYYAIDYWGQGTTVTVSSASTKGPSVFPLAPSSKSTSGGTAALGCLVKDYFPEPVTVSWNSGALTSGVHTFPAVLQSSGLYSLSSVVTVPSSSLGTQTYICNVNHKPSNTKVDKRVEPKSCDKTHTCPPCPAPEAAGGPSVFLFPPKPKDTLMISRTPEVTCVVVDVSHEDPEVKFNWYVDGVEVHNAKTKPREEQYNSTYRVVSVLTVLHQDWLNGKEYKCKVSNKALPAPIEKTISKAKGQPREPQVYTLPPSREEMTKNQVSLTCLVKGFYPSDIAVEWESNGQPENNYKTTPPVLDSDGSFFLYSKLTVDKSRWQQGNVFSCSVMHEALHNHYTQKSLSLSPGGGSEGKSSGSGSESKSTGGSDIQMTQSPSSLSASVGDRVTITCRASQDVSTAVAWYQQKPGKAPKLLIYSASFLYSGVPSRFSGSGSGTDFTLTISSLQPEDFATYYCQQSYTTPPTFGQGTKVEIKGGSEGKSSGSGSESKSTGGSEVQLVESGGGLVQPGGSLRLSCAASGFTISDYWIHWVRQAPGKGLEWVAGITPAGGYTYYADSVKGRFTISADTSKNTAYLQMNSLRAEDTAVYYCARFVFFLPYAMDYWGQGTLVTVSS
light: B3 light

Legend:
Assay in all cases: cell-based or functional assay
human VEGF-A [1] = target: T1, human VEGF-A (human, UniProt P15692-4 27-191)
T1 sequence (P15692 other isoform, or with tags, fused parts or gaps limits assumed): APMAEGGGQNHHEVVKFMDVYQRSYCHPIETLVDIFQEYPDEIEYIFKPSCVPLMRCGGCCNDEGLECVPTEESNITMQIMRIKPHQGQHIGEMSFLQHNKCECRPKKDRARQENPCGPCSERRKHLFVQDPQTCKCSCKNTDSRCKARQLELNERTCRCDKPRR

human VEGF-A [2] = target: T1, human VEGF-A; remark: listed apart in the source
human VEGF-A [3] = target: T1, human VEGF-A; remark: listed apart in the source
human VEGF-A [4] = target: T1, human VEGF-A; remark: listed apart in the source
human VEGF-A [5] = target: T1, human VEGF-A; remark: listed apart in the source
human VEGF-A [6] = target: T1, human VEGF-A; remark: listed apart in the source

| Binder | Bottom plateau (ERK1/2 phosphorylation, counts) (human VEGF-A [1]) | Bottom plateau (Src phosphorylation, counts) (human VEGF-A [1]) | IC50 (ERK1/2 phosphorylation) (human VEGF-A [1]) | IC50 (Src phosphorylation) (human VEGF-A [1]) | Bottom plateau (ERK1/2 phosphorylation, counts) (human VEGF-A [2]) | Bottom plateau (Src phosphorylation, counts) (human VEGF-A [2]) | IC50 (ERK1/2 phosphorylation) (human VEGF-A [2]) | IC50 (Src phosphorylation) (human VEGF-A [2]) | concentration for full inhibition of VEGF-induced HRMEC proliferation (human VEGF-A [3]) | Bottom plateau (ERK1/2 phosphorylation, counts) (human VEGF-A [4]) | Bottom plateau (Src phosphorylation, counts) (human VEGF-A [4]) | IC50 (ERK1/2 phosphorylation) (human VEGF-A [4]) | IC50 (Src phosphorylation) (human VEGF-A [4]) | Bottom plateau (ERK1/2 phosphorylation, counts) (human VEGF-A [5]) | Bottom plateau (Src phosphorylation, counts) (human VEGF-A [5]) | IC50 (ERK1/2 phosphorylation) (human VEGF-A [5]) | IC50 (Src phosphorylation) (human VEGF-A [5]) | IC50 (ERK1/2 phosphorylation) (human VEGF-A [3]) | other results |
| --- | --- | --- | --- | --- | --- | --- | --- | --- | --- | --- | --- | --- | --- | --- | --- | --- | --- | --- | --- |
| B1 | 1330 counts | 5480 counts | 2.71 nM | 1.8 nM | 1330 counts | 5480 counts | 2.71 nM | 1.8 nM |  |  |  |  |  |  |  |  |  |  |  |
| B2 | 1140 counts | 5540 counts | 2.51 nM | 1.16 nM | 1140 counts | 5540 counts | 2.51 nM | 1.16 nM |  |  |  |  |  |  |  |  |  |  |  |
| B3 |  |  |  |  |  |  |  |  | 4 nM | -927 counts | 4570 counts | 5.6 nM | 5.8 nM | -926 counts | 4570 counts | 5.58 nM | 5.83 nM |  |  |
| B4 | 3690 counts | 6300 counts | 5.59 nM | 3.97 nM | 3690 counts | 6300 counts | 5.59 nM | 3.97 nM |  | 3690 counts | 6300 counts | 5.6 nM | 4 nM | 3690 counts | 6300 counts | 5.59 nM | 3.97 nM | ~4 nM and ~10 nM | IC50 (p38 MAPK phosphorylation) (human VEGF-A [3]): ~7.4 nM; IC50 (ERK1/2 phosphorylation) (human VEGF-A [6]): 9.1 nM; IC50 (p38 MAPK phosphorylation) (human VEGF-A [6]): 7.7 nM |
| B5 |  |  |  |  |  |  |  |  | 1 nM | -341 counts | 4650 counts | 3.5 nM | 3.4 nM | -340 counts | 4650 counts | 3.49 nM | 3.4 nM |  |  |
| B6 |  |  |  |  |  |  |  |  |  |  |  |  |  |  |  |  |  | ~4 nM and ~10 nM |  |
